# T1: human FcγRIIb receptor protein (R&D Systems) (human, UniProt P31994 46-217)
# T1 construct: Analyte injected over antibodies captured on a protein A/G chip (Biacore); also called CD32b
# T1 sequence (looked up): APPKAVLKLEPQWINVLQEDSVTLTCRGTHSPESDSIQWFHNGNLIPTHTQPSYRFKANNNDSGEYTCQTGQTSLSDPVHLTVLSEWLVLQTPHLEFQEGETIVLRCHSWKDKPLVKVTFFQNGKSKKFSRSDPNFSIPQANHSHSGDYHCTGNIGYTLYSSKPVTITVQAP
# Molecular target: T1, human FcγRIIb receptor protein (R&D …)
# Assay: SPR (Biacore)
row,Binder,Fold FcγRIIb
1,"S239D/H268D/L328F (antibody, human IgG1, kappa, HuAM4G7 IgG1 Fc variant) heavy: EVQLVESGGGLVKPGGSLKLSCAASGYTFTSYVMHWVRQAPGKGLEWIGYINPYNDGTKYNEKFQGRVTISSDKSISTAYMELSSLRSEDTAMYYCARGTYYYGTRVFDYWGQGTLVTVSSASTKGPSVFPLAPSSKSTSGGTAALGCLVKDYFPEPVTVSWNSGALTSGVHTFPAVLQSSGLYSLSSVVTVPSSSLGTQTYICNVNHKPSNTKVDKKVEPKSCDKTHTCPPCPAPELLGGPDVFLFPPKPKDTLMISRTPEVTCVVVDVSDEDPEVKFNWYVDGVEVHNAKTKPREEQYNSTYRVVSVLTVLHQDWLNGKEYKCKVSNKAFPAPIEKTISKAKGQPREPQVYTLPPSREEMTKNQVSLTCLVKGFYPSDIAVEWESNGQPENNYKTTPPVLDSDGSFFLYSKLTVDKSRWQQGNVFSCSVMHEALHNHYTQKSLSLSPGK light: DIVMTQSPATLSLSPGERATLSCRSSKSLQNVNGNTYLYWFQQKPGQSPQLLIYRMSNLNSGVPDRFSGSGSGTEFTLTISSLEPEDFAVYYCMQHLEYPITFGAGTKLEIKRTVAAPSVFIFPPSDEQLKSGTASVVCLLNNFYPREAKVQWKVDNALQSGNSQESVTEQDSKDSTYSLSSTLTLSKADYEKHKVYACEVTHQGLSSPVTKSFNRGEC",8.79 fold
2,"S239D/H268D/L328W/I332E (antibody, human IgG1, kappa, HuAM4G7 IgG1 Fc variant) heavy: EVQLVESGGGLVKPGGSLKLSCAASGYTFTSYVMHWVRQAPGKGLEWIGYINPYNDGTKYNEKFQGRVTISSDKSISTAYMELSSLRSEDTAMYYCARGTYYYGTRVFDYWGQGTLVTVSSASTKGPSVFPLAPSSKSTSGGTAALGCLVKDYFPEPVTVSWNSGALTSGVHTFPAVLQSSGLYSLSSVVTVPSSSLGTQTYICNVNHKPSNTKVDKKVEPKSCDKTHTCPPCPAPELLGGPDVFLFPPKPKDTLMISRTPEVTCVVVDVSDEDPEVKFNWYVDGVEVHNAKTKPREEQYNSTYRVVSVLTVLHQDWLNGKEYKCKVSNKAWPAPEEKTISKAKGQPREPQVYTLPPSREEMTKNQVSLTCLVKGFYPSDIAVEWESNGQPENNYKTTPPVLDSDGSFFLYSKLTVDKSRWQQGNVFSCSVMHEALHNHYTQKSLSLSPGK light: DIVMTQSPATLSLSPGERATLSCRSSKSLQNVNGNTYLYWFQQKPGQSPQLLIYRMSNLNSGVPDRFSGSGSGTEFTLTISSLEPEDFAVYYCMQHLEYPITFGAGTKLEIKRTVAAPSVFIFPPSDEQLKSGTASVVCLLNNFYPREAKVQWKVDNALQSGNSQESVTEQDSKDSTYSLSSTLTLSKADYEKHKVYACEVTHQGLSSPVTKSFNRGEC",27.8 fold
3,"S239D/H268D/L328W (antibody, human IgG1, kappa, HuAM4G7 IgG1 Fc variant) heavy: EVQLVESGGGLVKPGGSLKLSCAASGYTFTSYVMHWVRQAPGKGLEWIGYINPYNDGTKYNEKFQGRVTISSDKSISTAYMELSSLRSEDTAMYYCARGTYYYGTRVFDYWGQGTLVTVSSASTKGPSVFPLAPSSKSTSGGTAALGCLVKDYFPEPVTVSWNSGALTSGVHTFPAVLQSSGLYSLSSVVTVPSSSLGTQTYICNVNHKPSNTKVDKKVEPKSCDKTHTCPPCPAPELLGGPDVFLFPPKPKDTLMISRTPEVTCVVVDVSDEDPEVKFNWYVDGVEVHNAKTKPREEQYNSTYRVVSVLTVLHQDWLNGKEYKCKVSNKAWPAPIEKTISKAKGQPREPQVYTLPPSREEMTKNQVSLTCLVKGFYPSDIAVEWESNGQPENNYKTTPPVLDSDGSFFLYSKLTVDKSRWQQGNVFSCSVMHEALHNHYTQKSLSLSPGK light: DIVMTQSPATLSLSPGERATLSCRSSKSLQNVNGNTYLYWFQQKPGQSPQLLIYRMSNLNSGVPDRFSGSGSGTEFTLTISSLEPEDFAVYYCMQHLEYPITFGAGTKLEIKRTVAAPSVFIFPPSDEQLKSGTASVVCLLNNFYPREAKVQWKVDNALQSGNSQESVTEQDSKDSTYSLSSTLTLSKADYEKHKVYACEVTHQGLSSPVTKSFNRGEC",51.1 fold
4,"S239D/H268D/L328F/I332E (antibody, human IgG1, kappa, HuAM4G7 IgG1 Fc variant) heavy: EVQLVESGGGLVKPGGSLKLSCAASGYTFTSYVMHWVRQAPGKGLEWIGYINPYNDGTKYNEKFQGRVTISSDKSISTAYMELSSLRSEDTAMYYCARGTYYYGTRVFDYWGQGTLVTVSSASTKGPSVFPLAPSSKSTSGGTAALGCLVKDYFPEPVTVSWNSGALTSGVHTFPAVLQSSGLYSLSSVVTVPSSSLGTQTYICNVNHKPSNTKVDKKVEPKSCDKTHTCPPCPAPELLGGPDVFLFPPKPKDTLMISRTPEVTCVVVDVSDEDPEVKFNWYVDGVEVHNAKTKPREEQYNSTYRVVSVLTVLHQDWLNGKEYKCKVSNKAFPAPEEKTISKAKGQPREPQVYTLPPSREEMTKNQVSLTCLVKGFYPSDIAVEWESNGQPENNYKTTPPVLDSDGSFFLYSKLTVDKSRWQQGNVFSCSVMHEALHNHYTQKSLSLSPGK light: DIVMTQSPATLSLSPGERATLSCRSSKSLQNVNGNTYLYWFQQKPGQSPQLLIYRMSNLNSGVPDRFSGSGSGTEFTLTISSLEPEDFAVYYCMQHLEYPITFGAGTKLEIKRTVAAPSVFIFPPSDEQLKSGTASVVCLLNNFYPREAKVQWKVDNALQSGNSQESVTEQDSKDSTYSLSSTLTLSKADYEKHKVYACEVTHQGLSSPVTKSFNRGEC",53.2 fold

# Further lines, results first:
row,Fold FcγRIIb,Binder
1,54.1 fold,"S239D/H268D/L328Y/I332E (antibody, human IgG1, kappa, HuAM4G7 IgG1 Fc variant) heavy: EVQLVESGGGLVKPGGSLKLSCAASGYTFTSYVMHWVRQAPGKGLEWIGYINPYNDGTKYNEKFQGRVTISSDKSISTAYMELSSLRSEDTAMYYCARGTYYYGTRVFDYWGQGTLVTVSSASTKGPSVFPLAPSSKSTSGGTAALGCLVKDYFPEPVTVSWNSGALTSGVHTFPAVLQSSGLYSLSSVVTVPSSSLGTQTYICNVNHKPSNTKVDKKVEPKSCDKTHTCPPCPAPELLGGPDVFLFPPKPKDTLMISRTPEVTCVVVDVSDEDPEVKFNWYVDGVEVHNAKTKPREEQYNSTYRVVSVLTVLHQDWLNGKEYKCKVSNKAYPAPEEKTISKAKGQPREPQVYTLPPSREEMTKNQVSLTCLVKGFYPSDIAVEWESNGQPENNYKTTPPVLDSDGSFFLYSKLTVDKSRWQQGNVFSCSVMHEALHNHYTQKSLSLSPGK light: DIVMTQSPATLSLSPGERATLSCRSSKSLQNVNGNTYLYWFQQKPGQSPQLLIYRMSNLNSGVPDRFSGSGSGTEFTLTISSLEPEDFAVYYCMQHLEYPITFGAGTKLEIKRTVAAPSVFIFPPSDEQLKSGTASVVCLLNNFYPREAKVQWKVDNALQSGNSQESVTEQDSKDSTYSLSSTLTLSKADYEKHKVYACEVTHQGLSSPVTKSFNRGEC"
2,24.4 fold,"S239D/H268D/L328Y (antibody, human IgG1, kappa, HuAM4G7 IgG1 Fc variant) heavy: EVQLVESGGGLVKPGGSLKLSCAASGYTFTSYVMHWVRQAPGKGLEWIGYINPYNDGTKYNEKFQGRVTISSDKSISTAYMELSSLRSEDTAMYYCARGTYYYGTRVFDYWGQGTLVTVSSASTKGPSVFPLAPSSKSTSGGTAALGCLVKDYFPEPVTVSWNSGALTSGVHTFPAVLQSSGLYSLSSVVTVPSSSLGTQTYICNVNHKPSNTKVDKKVEPKSCDKTHTCPPCPAPELLGGPDVFLFPPKPKDTLMISRTPEVTCVVVDVSDEDPEVKFNWYVDGVEVHNAKTKPREEQYNSTYRVVSVLTVLHQDWLNGKEYKCKVSNKAYPAPIEKTISKAKGQPREPQVYTLPPSREEMTKNQVSLTCLVKGFYPSDIAVEWESNGQPENNYKTTPPVLDSDGSFFLYSKLTVDKSRWQQGNVFSCSVMHEALHNHYTQKSLSLSPGK light: DIVMTQSPATLSLSPGERATLSCRSSKSLQNVNGNTYLYWFQQKPGQSPQLLIYRMSNLNSGVPDRFSGSGSGTEFTLTISSLEPEDFAVYYCMQHLEYPITFGAGTKLEIKRTVAAPSVFIFPPSDEQLKSGTASVVCLLNNFYPREAKVQWKVDNALQSGNSQESVTEQDSKDSTYSLSSTLTLSKADYEKHKVYACEVTHQGLSSPVTKSFNRGEC"
3,13 fold,"S239D/K326D/L328Y (antibody, human IgG1, kappa, HuAM4G7 IgG1 Fc variant) heavy: EVQLVESGGGLVKPGGSLKLSCAASGYTFTSYVMHWVRQAPGKGLEWIGYINPYNDGTKYNEKFQGRVTISSDKSISTAYMELSSLRSEDTAMYYCARGTYYYGTRVFDYWGQGTLVTVSSASTKGPSVFPLAPSSKSTSGGTAALGCLVKDYFPEPVTVSWNSGALTSGVHTFPAVLQSSGLYSLSSVVTVPSSSLGTQTYICNVNHKPSNTKVDKKVEPKSCDKTHTCPPCPAPELLGGPDVFLFPPKPKDTLMISRTPEVTCVVVDVSHEDPEVKFNWYVDGVEVHNAKTKPREEQYNSTYRVVSVLTVLHQDWLNGKEYKCKVSNDAYPAPIEKTISKAKGQPREPQVYTLPPSREEMTKNQVSLTCLVKGFYPSDIAVEWESNGQPENNYKTTPPVLDSDGSFFLYSKLTVDKSRWQQGNVFSCSVMHEALHNHYTQKSLSLSPGK light: DIVMTQSPATLSLSPGERATLSCRSSKSLQNVNGNTYLYWFQQKPGQSPQLLIYRMSNLNSGVPDRFSGSGSGTEFTLTISSLEPEDFAVYYCMQHLEYPITFGAGTKLEIKRTVAAPSVFIFPPSDEQLKSGTASVVCLLNNFYPREAKVQWKVDNALQSGNSQESVTEQDSKDSTYSLSSTLTLSKADYEKHKVYACEVTHQGLSSPVTKSFNRGEC"
4,21.7 fold,"S239D/H268E/L328Y (antibody, human IgG1, kappa, HuAM4G7 IgG1 Fc variant) heavy: EVQLVESGGGLVKPGGSLKLSCAASGYTFTSYVMHWVRQAPGKGLEWIGYINPYNDGTKYNEKFQGRVTISSDKSISTAYMELSSLRSEDTAMYYCARGTYYYGTRVFDYWGQGTLVTVSSASTKGPSVFPLAPSSKSTSGGTAALGCLVKDYFPEPVTVSWNSGALTSGVHTFPAVLQSSGLYSLSSVVTVPSSSLGTQTYICNVNHKPSNTKVDKKVEPKSCDKTHTCPPCPAPELLGGPDVFLFPPKPKDTLMISRTPEVTCVVVDVSEEDPEVKFNWYVDGVEVHNAKTKPREEQYNSTYRVVSVLTVLHQDWLNGKEYKCKVSNKAYPAPIEKTISKAKGQPREPQVYTLPPSREEMTKNQVSLTCLVKGFYPSDIAVEWESNGQPENNYKTTPPVLDSDGSFFLYSKLTVDKSRWQQGNVFSCSVMHEALHNHYTQKSLSLSPGK light: DIVMTQSPATLSLSPGERATLSCRSSKSLQNVNGNTYLYWFQQKPGQSPQLLIYRMSNLNSGVPDRFSGSGSGTEFTLTISSLEPEDFAVYYCMQHLEYPITFGAGTKLEIKRTVAAPSVFIFPPSDEQLKSGTASVVCLLNNFYPREAKVQWKVDNALQSGNSQESVTEQDSKDSTYSLSSTLTLSKADYEKHKVYACEVTHQGLSSPVTKSFNRGEC"

# Source: patent US20170355766A1 (Xencor, published 2017)
